Source: publication PMC5484413 (Nature structural & molecular biology, 2016)

T1: GST-NPP-14 (C. elegans, UniProt Q17602 1-1390)
T1 sequence (looked up): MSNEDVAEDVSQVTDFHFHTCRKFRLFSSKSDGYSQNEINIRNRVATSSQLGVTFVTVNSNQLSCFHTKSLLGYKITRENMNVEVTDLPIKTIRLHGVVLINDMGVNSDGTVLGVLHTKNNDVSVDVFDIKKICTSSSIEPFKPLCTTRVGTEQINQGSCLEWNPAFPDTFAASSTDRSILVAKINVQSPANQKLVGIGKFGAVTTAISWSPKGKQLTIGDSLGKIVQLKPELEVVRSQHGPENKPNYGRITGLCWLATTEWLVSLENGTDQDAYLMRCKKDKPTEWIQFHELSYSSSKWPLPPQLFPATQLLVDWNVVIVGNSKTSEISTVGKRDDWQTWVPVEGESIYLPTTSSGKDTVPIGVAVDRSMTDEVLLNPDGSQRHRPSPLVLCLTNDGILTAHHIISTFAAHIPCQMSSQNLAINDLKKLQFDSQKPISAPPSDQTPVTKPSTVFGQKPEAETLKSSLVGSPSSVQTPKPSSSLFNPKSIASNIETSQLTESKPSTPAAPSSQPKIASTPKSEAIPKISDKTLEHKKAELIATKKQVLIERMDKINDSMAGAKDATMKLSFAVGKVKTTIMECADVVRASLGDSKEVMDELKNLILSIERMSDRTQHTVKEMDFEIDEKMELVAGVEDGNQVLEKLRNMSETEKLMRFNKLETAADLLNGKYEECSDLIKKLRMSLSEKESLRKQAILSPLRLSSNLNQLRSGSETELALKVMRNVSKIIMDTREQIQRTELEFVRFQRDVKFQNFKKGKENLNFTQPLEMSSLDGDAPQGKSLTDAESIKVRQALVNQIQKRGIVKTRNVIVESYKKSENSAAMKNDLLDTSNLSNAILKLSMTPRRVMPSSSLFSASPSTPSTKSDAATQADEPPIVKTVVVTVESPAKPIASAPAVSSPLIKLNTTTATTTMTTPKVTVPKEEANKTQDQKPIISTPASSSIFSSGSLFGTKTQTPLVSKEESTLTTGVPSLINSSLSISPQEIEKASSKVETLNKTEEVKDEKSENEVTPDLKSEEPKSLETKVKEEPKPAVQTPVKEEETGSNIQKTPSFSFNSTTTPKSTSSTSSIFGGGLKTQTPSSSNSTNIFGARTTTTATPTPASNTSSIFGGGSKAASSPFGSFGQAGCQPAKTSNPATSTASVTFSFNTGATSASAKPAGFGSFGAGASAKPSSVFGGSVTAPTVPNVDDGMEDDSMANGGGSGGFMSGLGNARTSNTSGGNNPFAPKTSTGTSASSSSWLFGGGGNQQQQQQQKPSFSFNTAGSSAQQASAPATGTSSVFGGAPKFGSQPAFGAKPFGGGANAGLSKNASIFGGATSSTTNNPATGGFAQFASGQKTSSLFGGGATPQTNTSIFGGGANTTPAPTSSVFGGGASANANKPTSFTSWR

B1: CED-3(1-220)-His6 (wild-type) (domain or fragment, C. elegans, UniProt P42573 1-220, looked up)
chain: MMRQDRRSLLERNIMMFSSHLKVDEILEVLIAKQVLNSDNGDMINSCGTVREKRREIVKAVQRRGDVAFDAFYDALRSTGHEGLAEVLEPLARSVDSNAVEFECPMSPASHRRSRALSPAGYTSPTRVHRDSVSSVSSFTSYQDIYSRARSRSRSRALHSSDRHNYSSPPVNAFPSQPSSANSSFTGCSSLGYSSSRNRSFSKASGPTQYIFHEEDMNFV
B2: CED-3(1-220)-His6 L27F (domain or fragment, C. elegans, UniProt P42573 1-220, looked up)
chain: MMRQDRRSLLERNIMMFSSHLKVDEIFEVLIAKQVLNSDNGDMINSCGTVREKRREIVKAVQRRGDVAFDAFYDALRSTGHEGLAEVLEPLARSVDSNAVEFECPMSPASHRRSRALSPAGYTSPTRVHRDSVSSVSSFTSYQDIYSRARSRSRSRALHSSDRHNYSSPPVNAFPSQPSSANSSFTGCSSLGYSSSRNRSFSKASGPTQYIFHEEDMNFV
B3: CED-3(1-220)-His6 G65R (domain or fragment, C. elegans, UniProt P42573 1-220, looked up)
chain: MMRQDRRSLLERNIMMFSSHLKVDEILEVLIAKQVLNSDNGDMINSCGTVREKRREIVKAVQRRRDVAFDAFYDALRSTGHEGLAEVLEPLARSVDSNAVEFECPMSPASHRRSRALSPAGYTSPTRVHRDSVSSVSSFTSYQDIYSRARSRSRSRALHSSDRHNYSSPPVNAFPSQPSSANSSFTGCSSLGYSSSRNRSFSKASGPTQYIFHEEDMNFV
B4: CED-3(1-220)-His6 L30F (domain or fragment, C. elegans, UniProt P42573 1-220, looked up)
chain: MMRQDRRSLLERNIMMFSSHLKVDEILEVFIAKQVLNSDNGDMINSCGTVREKRREIVKAVQRRGDVAFDAFYDALRSTGHEGLAEVLEPLARSVDSNAVEFECPMSPASHRRSRALSPAGYTSPTRVHRDSVSSVSSFTSYQDIYSRARSRSRSRALHSSDRHNYSSPPVNAFPSQPSSANSSFTGCSSLGYSSSRNRSFSKASGPTQYIFHEEDMNFV

The binders below were run against T1, GST-NPP-14 (assay: pull-down).

Binding result, binds:
B1
B2
B3
B4
